The subject of this data set is U1A N-terminal RRM. Briefly: EMSA. To be noted: 10 mM Tris-HCl pH 7.4, 250 mM NaCl, 1 mM EDTA, 0.5% Triton X-100, 1 mg/mL tRNA, 25 pM RNA, at least 45 min, gel at 25 C (A6P, A6c1A and A6G of Table 3 omitted: …).

As a reminder, the Kd is the equilibrium constant for the complex coming apart. A lower Kd goes with higher affinity. In the case of A1G/C10A SL2 RNA, the Kd amounted to 1300 nM. Substance A1c1A SL2 RNA showed a Kd (loop A1 to 1-deazaadenosine (c1A)) of 0.7 nM. In turn, C10A SL2 RNA yielded a Kd of 0.6 nM.

A6DAP SL2 RNA showed a Kd (loop A6 to 2,6-diaminopurine (DAP)) of 110 nM. For the substance WT SL2 RNA, the Kd amounted to 0.3 nM.

With G4dG SL2 RNA, the dissociation constant Kd (loop G4 to 2'-deoxyguanosine) came to 0.11 nM. For the setting “loop A1 to 2-aminopurine”, A1-2AP SL2 RNA returned a dissociation constant Kd of 40 nM. A1I SL2 RNA registered a Kd (loop A1 to inosine) of 16 nM. A1P SL2 RNA registered a Kd (loop A1 to purine (6-NH2 replaced by H)) of 0.9 nM. Consider G4DAP SL2 RNA, for which, under “loop G4 to 2,6-diaminopurine (DAP)”, the Kd was 2000 nM. The substance A1DAP SL2 RNA displayed a Kd (loop A1 to 2,6-diaminopurine (DAP)) of 40 nM.

On to G4A SL2 RNA, for which the dissociation constant (Kd) is 11000 nM.

Where the note is “loop G4 to inosine”, G4I SL2 RNA showed a Kd of 3 nM. On to G4-2AP SL2 RNA, for which, for the setting “loop G4 to 2-aminopurine”, the Kd stood at 4000 nM. Take G4c7dG SL2 RNA: the Kd (loop G4 to 7-deaza-2'-deoxyguanosine (c7dG)) came to 31 nM.

For A1G SL2 RNA, the Kd stood at 1400 nM. The substance A6-2AP SL2 RNA displayed a Kd (loop A6 to 2-aminopurine) of 700 nM. A6I SL2 RNA: the Kd (loop A6 to inosine) came out at 8000 nM.

These data come from paper PMC2203988.
